Experimental data reported in article PMC10397247.

T1: 4H687-bA
T1 chain: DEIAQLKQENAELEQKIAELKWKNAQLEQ

T2: 4H717-bA
T2 chain: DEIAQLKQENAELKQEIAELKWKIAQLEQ

T3: 4H72-bA
T3 chain: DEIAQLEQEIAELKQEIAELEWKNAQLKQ

T4: 4H754-bA
T4 chain: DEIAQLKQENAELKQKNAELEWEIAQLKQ

T5: 4H797-bA
T5 chain: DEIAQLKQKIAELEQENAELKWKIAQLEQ

T6: 4H883-bA
T6 chain: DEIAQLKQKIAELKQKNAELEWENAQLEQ

T7: 4H908-bA
T7 chain: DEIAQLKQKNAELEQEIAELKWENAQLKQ

T8: 4H918-bA
T8 chain: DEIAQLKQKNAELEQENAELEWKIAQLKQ

T9: 4H953-bA
T9 chain: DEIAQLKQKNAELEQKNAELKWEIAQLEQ

T10: 4H967-bA
T10 chain: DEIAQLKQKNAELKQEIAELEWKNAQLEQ

T11: O13-bH
T11 chain: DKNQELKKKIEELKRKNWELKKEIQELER

T12: 4H2619-bA
T12 chain: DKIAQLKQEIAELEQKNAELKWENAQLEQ

T13: 4H2691-bA
T13 chain: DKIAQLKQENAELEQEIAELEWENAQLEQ

T14: 4H2745-bA
T14 chain: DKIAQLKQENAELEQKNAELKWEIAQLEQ

T15: 4H3070-bA
T15 chain: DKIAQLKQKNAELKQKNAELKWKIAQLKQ

T16: 4H3129-bN
T16 chain: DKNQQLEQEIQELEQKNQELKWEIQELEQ

T17: 4H342-bA
T17 chain: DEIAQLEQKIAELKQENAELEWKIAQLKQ

T18: 4H344-bA
T18 chain: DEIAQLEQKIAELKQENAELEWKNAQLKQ

T19: 4H363-bA
T19 chain: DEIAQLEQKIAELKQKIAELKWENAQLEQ

T20: 4H3632-bA
T20 chain: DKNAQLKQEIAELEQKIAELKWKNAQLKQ

T21: 4H3907-bA
T21 chain: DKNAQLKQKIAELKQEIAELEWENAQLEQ

T22: 4H3961-bA
T22 chain: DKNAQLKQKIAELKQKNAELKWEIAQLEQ

T23: 4H470-bA
T23 chain: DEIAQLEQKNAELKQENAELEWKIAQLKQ

T24: 4H496-bA
T24 chain: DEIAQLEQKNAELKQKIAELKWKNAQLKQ

T25: 4H2442-bA
T25 chain: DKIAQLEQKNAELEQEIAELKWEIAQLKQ

T26: 4H2576-bA
T26 chain: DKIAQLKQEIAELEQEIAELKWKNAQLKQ

T27: 4H2618-bA
T27 chain: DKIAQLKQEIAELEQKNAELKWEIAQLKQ

T28: 4H2667-bA
T28 chain: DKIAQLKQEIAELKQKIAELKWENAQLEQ

T29: 4H2729-bA
T29 chain: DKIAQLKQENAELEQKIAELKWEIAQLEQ

T30: 4H3112-bA
T30 chain: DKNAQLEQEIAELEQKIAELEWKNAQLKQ

T31: 4H3185-bA
T31 chain: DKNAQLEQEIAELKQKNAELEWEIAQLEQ

T32: 4H331-bA
T32 chain: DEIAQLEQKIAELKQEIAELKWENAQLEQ

T33: 4H3354-bA
T33 chain: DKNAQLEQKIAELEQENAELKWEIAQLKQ

T34: 4H338-bA
T34 chain: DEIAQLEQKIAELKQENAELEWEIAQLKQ

T35: 4H3427-bA
T35 chain: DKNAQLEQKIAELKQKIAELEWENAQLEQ

T36: 4H3497-bA
T36 chain: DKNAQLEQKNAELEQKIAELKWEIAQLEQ

T37: 4H3782-bA
T37 chain: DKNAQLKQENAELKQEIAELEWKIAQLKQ

T38: 4H3855-bA
T38 chain: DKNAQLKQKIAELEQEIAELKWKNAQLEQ

T39: 4H4001-bA
T39 chain: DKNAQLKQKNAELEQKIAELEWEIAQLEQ

T40: 4H454-bA
T40 chain: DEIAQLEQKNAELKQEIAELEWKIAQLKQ

T41: 4H568-bA
T41 chain: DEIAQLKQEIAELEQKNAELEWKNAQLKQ

T42: 4H607-bA
T42 chain: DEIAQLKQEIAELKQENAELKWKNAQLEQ

T43: 4H1845-bA
T43 chain: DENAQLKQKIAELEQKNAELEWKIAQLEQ

T44: 4H2610-bA
T44 chain: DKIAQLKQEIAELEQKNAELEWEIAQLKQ

T45: 4H2697-bA
T45 chain: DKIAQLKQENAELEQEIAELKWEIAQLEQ

T46: 4H3010-bN
T46 chain: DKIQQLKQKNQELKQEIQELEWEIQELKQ

T47: 4H3189-bA
T47 chain: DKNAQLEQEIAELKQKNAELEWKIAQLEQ

T48: 4H3606-bA
T48 chain: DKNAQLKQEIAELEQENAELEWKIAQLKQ

T49: 4H370-bA
T49 chain: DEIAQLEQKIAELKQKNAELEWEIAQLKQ

T50: 4H3843-bA
T50 chain: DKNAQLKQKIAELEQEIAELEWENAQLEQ

T51: 4H462-bA
T51 chain: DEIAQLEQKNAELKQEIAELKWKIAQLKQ

T52: 4H607-bN
T52 chain: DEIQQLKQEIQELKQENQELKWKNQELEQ


How the values were obtained:
Assay in all cases: two-hybrid library CCNG1;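 further: natural log of median RNA to DNA barcode read ratio; higher means stronger binding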
4H687-bA = molecular target: T1, 4H687-bA
4H717-bA = molecular target: T2, 4H717-bA
4H72-bA = molecular target: T3, 4H72-bA
4H754-bA = molecular target: T4, 4H754-bA
4H797-bA = molecular target: T5, 4H797-bA
4H883-bA = molecular target: T6, 4H883-bA
4H908-bA = molecular target: T7, 4H908-bA
4H918-bA = molecular target: T8, 4H918-bA
4H953-bA = molecular target: T9, 4H953-bA
4H967-bA = molecular target: T10, 4H967-bA
O13-bH = molecular target: T11, O13-bH
4H2619-bA = molecular target: T12, 4H2619-bA
4H2691-bA = molecular target: T13, 4H2691-bA
4H2745-bA = molecular target: T14, 4H2745-bA
4H3070-bA = molecular target: T15, 4H3070-bA
4H3129-bN = molecular target: T16, 4H3129-bN
4H342-bA = molecular target: T17, 4H342-bA
4H344-bA = molecular target: T18, 4H344-bA
4H363-bA = molecular target: T19, 4H363-bA
4H3632-bA = molecular target: T20, 4H3632-bA
4H3907-bA = molecular target: T21, 4H3907-bA
4H3961-bA = molecular target: T22, 4H3961-bA
4H470-bA = molecular target: T23, 4H470-bA
4H496-bA = molecular target: T24, 4H496-bA
4H2442-bA = molecular target: T25, 4H2442-bA
4H2576-bA = molecular target: T26, 4H2576-bA
4H2618-bA = molecular target: T27, 4H2618-bA
4H2667-bA = molecular target: T28, 4H2667-bA
4H2729-bA = molecular target: T29, 4H2729-bA
4H3112-bA = molecular target: T30, 4H3112-bA
4H3185-bA = molecular target: T31, 4H3185-bA
4H331-bA = molecular target: T32, 4H331-bA
4H3354-bA = molecular target: T33, 4H3354-bA
4H338-bA = molecular target: T34, 4H338-bA
4H3427-bA = molecular target: T35, 4H3427-bA
4H3497-bA = molecular target: T36, 4H3497-bA
4H3782-bA = molecular target: T37, 4H3782-bA
4H3855-bA = molecular target: T38, 4H3855-bA
4H4001-bA = molecular target: T39, 4H4001-bA
4H454-bA = molecular target: T40, 4H454-bA
4H568-bA = molecular target: T41, 4H568-bA
4H607-bA = molecular target: T42, 4H607-bA
4H1845-bA = molecular target: T43, 4H1845-bA
4H2610-bA = molecular target: T44, 4H2610-bA
4H2697-bA = molecular target: T45, 4H2697-bA
4H3010-bN = molecular target: T46, 4H3010-bN
4H3189-bA = molecular target: T47, 4H3189-bA
4H3606-bA = molecular target: T48, 4H3606-bA
4H370-bA = molecular target: T49, 4H370-bA
4H3843-bA = molecular target: T50, 4H3843-bA
4H462-bA = molecular target: T51, 4H462-bA
4H607-bN = molecular target: T52, 4H607-bN

interaction score (4H687-bA)	interaction score (4H717-bA)	interaction score (4H72-bA)	interaction score (4H754-bA)	interaction score (4H797-bA)	interaction score (4H883-bA)	interaction score (4H908-bA)	interaction score (4H918-bA)	interaction score (4H953-bA)	interaction score (4H967-bA)	interaction score (4H2442-bA)	interaction score (4H2576-bA)	interaction score (4H2618-bA)	interaction score (4H2667-bA)	interaction score (4H2729-bA)	interaction score (4H3112-bA)	interaction score (4H3185-bA)	interaction score (4H331-bA)	interaction score (4H3354-bA)	interaction score (4H338-bA)	Binder	further results
-1.03	-1.32	-0.595	-0.491	-0.624	-1.57	-0.749	-0.947	-1.51	1.07	–	–	–	–	–	–	–	–	–	–	DEIAQLKQENAELEQKIAELKWKNAQLEQ [4H687-bA]	interaction score (O13-bH): 1.07
–	–	–	–	–	–	–	–	–	–	–	–	–	–	–	–	–	–	–	–	DKIAQLKQEIAELEQKNAELKWENAQLEQ [4H2619-bA]	interaction score (4H2619-bA): 0.00432; interaction score (4H2691-bA): -0.41; interaction score (4H2745-bA): -0.393; interaction score (4H3070-bA): -0.983; interaction score (4H3129-bN): -2.48; interaction score (4H342-bA): 1.56; interaction score (4H344-bA): 2.12; interaction score (4H363-bA): -0.409; interaction score (4H3632-bA): -1.09; interaction score (4H3907-bA): -0.505; interaction score (4H3961-bA): -0.981; interaction score (4H470-bA): -0.832; interaction score (4H496-bA): -0.573
-0.225	-0.902	-1.46	0.0444	-1.24	-1.15	-0.745	-1.46	-1.68	-1.64	1.33	-0.202	0.238	-0.365	1.52	-0.0125	-0.212	-1.21	-0.829	-0.0859	DKIAQLEQKNAELEQEIAELKWEIAQLKQ [4H2442-bA]	interaction score (4H3427-bA): 0.0308; interaction score (4H3497-bA): 1.63; interaction score (4H3782-bA): -1.13; interaction score (4H3855-bA): -0.595; interaction score (4H4001-bA): 0.5; interaction score (4H454-bA): 0.831; interaction score (4H568-bA): -1.89; interaction score (4H607-bA): -1.4
-0.612	-0.827	-0.517	-0.405	-0.424	-0.795	-1.42	-0.752	-1.23	-0.617	-0.649	0.69	-0.329	0.247	-0.636	-0.795	-0.124	-0.344	-0.823	-1.75	DENAQLKQKIAELEQKNAELEWKIAQLEQ [4H1845-bA]	interaction score (4H1845-bA): 0.564; interaction score (4H2610-bA): -0.596; interaction score (4H2697-bA): -0.601; interaction score (4H3010-bN): 0.0715; interaction score (4H3189-bA): -0.547; interaction score (4H3427-bA): -0.783; interaction score (4H3606-bA): -1.46; interaction score (4H370-bA): -0.74; interaction score (4H3782-bA): -0.678; interaction score (4H3843-bA): -0.572; interaction score (4H3855-bA): -1.1; interaction score (4H4001-bA): -0.341; interaction score (4H454-bA): -0.0982; interaction score (4H462-bA): -0.986; interaction score (4H568-bA): -0.306; interaction score (4H607-bA): -1.7; interaction score (4H607-bN): -0.945
